In paper PMC11922745, “Reconstitution of SPO11-dependent double-strand break formation” (Nature, 2024):
Substitutions are numbered along the chain they refer to. One block for each binder: values may come before it.

What was measured:
[1] = target: T1, SPO11 (beta isoform);TOP6BL (Mus musculus;Mus musculus, UniProt Q9WTK8;J3QMY9 1-396;1-579, |); assay: EMSA; 5 mM Mg2+, 50 mM NaCl, 4 C; apparent Kd for first monomer; doubly bound complexes formed; Hairpin EMSA: 25 mM Tris-HCl pH 7.5, 100 mM NaCl, 5 mM MgCl2, 7.5% glycerol, 2 mM DTT, 1 mg/ml BSA, 0.1 nM DNA, 30 min 30 C; cleavage-oligo EMSA: 25 mM HEPES-NaOH pH 7.5, 50 mM NaCl, 5 mM MgCl2, 7.5% glycerol, 1 mg/ml BSA, 2 mM DTT, 4 C; settings: protein: recombinant;recombinant; tags: N-terminal Flag-TEV;untagged; copies: 1;1; label: 32P (5' labelled, then ligated); closed dumbbell, 44 bp duplex with two A4 hairpin loops
T1 sequence 1: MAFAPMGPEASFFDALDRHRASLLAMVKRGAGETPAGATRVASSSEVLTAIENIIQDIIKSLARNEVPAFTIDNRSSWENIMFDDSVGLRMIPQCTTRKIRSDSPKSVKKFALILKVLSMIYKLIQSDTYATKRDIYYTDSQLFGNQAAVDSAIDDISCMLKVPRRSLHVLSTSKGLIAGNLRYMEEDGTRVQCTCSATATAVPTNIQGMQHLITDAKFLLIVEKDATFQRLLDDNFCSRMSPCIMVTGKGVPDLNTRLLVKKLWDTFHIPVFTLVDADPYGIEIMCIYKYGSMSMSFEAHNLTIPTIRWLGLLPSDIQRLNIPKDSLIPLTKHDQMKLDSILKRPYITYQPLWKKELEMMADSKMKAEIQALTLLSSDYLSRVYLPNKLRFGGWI
T1 sequence 2: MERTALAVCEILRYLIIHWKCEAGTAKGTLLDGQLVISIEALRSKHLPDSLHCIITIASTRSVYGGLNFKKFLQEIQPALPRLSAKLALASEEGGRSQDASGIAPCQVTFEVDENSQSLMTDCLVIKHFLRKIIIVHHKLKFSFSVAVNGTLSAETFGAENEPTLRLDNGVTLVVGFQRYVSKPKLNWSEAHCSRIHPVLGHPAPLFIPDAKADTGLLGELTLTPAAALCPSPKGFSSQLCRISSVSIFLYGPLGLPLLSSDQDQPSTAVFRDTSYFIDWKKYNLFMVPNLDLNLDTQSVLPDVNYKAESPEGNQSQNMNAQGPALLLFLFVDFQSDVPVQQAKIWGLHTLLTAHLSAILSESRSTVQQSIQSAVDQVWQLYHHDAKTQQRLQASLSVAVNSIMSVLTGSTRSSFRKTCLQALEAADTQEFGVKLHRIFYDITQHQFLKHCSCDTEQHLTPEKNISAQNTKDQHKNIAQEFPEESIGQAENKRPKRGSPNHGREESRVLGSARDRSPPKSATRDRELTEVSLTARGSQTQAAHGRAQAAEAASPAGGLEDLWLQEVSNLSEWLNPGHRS

[2] = target: T1, SPO11 (beta isoform);TOP6BL; assay: EMSA; double-end binding possible at 0.8 nM; Hairpin EMSA: 25 mM Tris-HCl pH 7.5, 100 mM NaCl, 5 mM MgCl2, 7.5% glycerol, 2 mM DTT, 1 mg/ml BSA, 0.1 nM DNA, 30 min 30 C; cleavage-oligo EMSA: 25 mM HEPES-NaOH pH 7.5, 50 mM NaCl, 5 mM MgCl2, 7.5% glycerol, 1 mg/ml BSA, 2 mM DTT, 4 C; settings: protein: recombinant;recombinant; tags: N-terminal Flag-TEV;untagged; copies: 1;1; label: 5'-32P; 5' overhang 2 nt (TA) at both ends
[3] = target: T1, SPO11 (beta isoform);TOP6BL; assay: EMSA; 5 mM Mg2+; apparent Kd, end binding; second shift at >=25 nM; Hairpin EMSA: 25 mM Tris-HCl pH 7.5, 100 mM NaCl, 5 mM MgCl2, 7.5% glycerol, 2 mM DTT, 1 mg/ml BSA, 0.1 nM DNA, 30 min 30 C; cleavage-oligo EMSA: 25 mM HEPES-NaOH pH 7.5, 50 mM NaCl, 5 mM MgCl2, 7.5% glycerol, 1 mg/ml BSA, 2 mM DTT, 4 C; settings: protein: recombinant;recombinant, tags: N-terminal Flag-TEV;untagged, copies: 1;1, label: 5'-32P, 5' overhang 2 nt
[4] = target: T2, SPO11 Y138F;TOP6BL (Mus musculus;Mus musculus, UniProt Q9WTK8;J3QMY9 1-396;1-579, Y138F|); assay: EMSA; 5 mM Mg2+; apparent Kd; Hairpin EMSA: 25 mM Tris-HCl pH 7.5, 100 mM NaCl, 5 mM MgCl2, 7.5% glycerol, 2 mM DTT, 1 mg/ml BSA, 0.1 nM DNA, 30 min 30 C; cleavage-oligo EMSA: 25 mM HEPES-NaOH pH 7.5, 50 mM NaCl, 5 mM MgCl2, 7.5% glycerol, 1 mg/ml BSA, 2 mM DTT, 4 C; settings: protein: recombinant;recombinant, tags: N-terminal Flag-TEV;untagged, copies: 1;1, label: 5'-32P, 5' overhang 2 nt
T2 sequence 1: T1 sequence 1 with Y138F
T2 sequence 2: T1 sequence 2

[5] = target: T3, SPO11 E224A;TOP6BL (Mus musculus;Mus musculus, UniProt Q9WTK8;J3QMY9 1-396;1-579, E224A|); assay: EMSA; 5 mM Mg2+; DNA binding retained; Kd value only in figure; Hairpin EMSA: 25 mM Tris-HCl pH 7.5, 100 mM NaCl, 5 mM MgCl2, 7.5% glycerol, 2 mM DTT, 1 mg/ml BSA, 0.1 nM DNA, 30 min 30 C; cleavage-oligo EMSA: 25 mM HEPES-NaOH pH 7.5, 50 mM NaCl, 5 mM MgCl2, 7.5% glycerol, 1 mg/ml BSA, 2 mM DTT, 4 C; settings: protein: recombinant;recombinant, tags: N-terminal Flag-TEV;untagged, copies: 1;1, label: 5'-32P, 5' overhang 2 nt
T3 sequence 1: T1 sequence 1 with E224A
T3 sequence 2: T1 sequence 2

[6] = target: T1, SPO11 (beta isoform);TOP6BL; assay: EMSA; double-end binding disfavoured at 0.8 nM, restored at higher protein; Hairpin EMSA: 25 mM Tris-HCl pH 7.5, 100 mM NaCl, 5 mM MgCl2, 7.5% glycerol, 2 mM DTT, 1 mg/ml BSA, 0.1 nM DNA, 30 min 30 C; cleavage-oligo EMSA: 25 mM HEPES-NaOH pH 7.5, 50 mM NaCl, 5 mM MgCl2, 7.5% glycerol, 1 mg/ml BSA, 2 mM DTT, 4 C; settings: protein: recombinant;recombinant; tags: N-terminal Flag-TEV;untagged; copies: 1;1; label: 5'-32P; 5' overhang 2 nt (TA) at both ends
[7] = target: T1, SPO11 (beta isoform);TOP6BL; assay: EMSA; double-end binding; Hairpin EMSA: 25 mM Tris-HCl pH 7.5, 100 mM NaCl, 5 mM MgCl2, 7.5% glycerol, 2 mM DTT, 1 mg/ml BSA, 0.1 nM DNA, 30 min 30 C; cleavage-oligo EMSA: 25 mM HEPES-NaOH pH 7.5, 50 mM NaCl, 5 mM MgCl2, 7.5% glycerol, 1 mg/ml BSA, 2 mM DTT, 4 C; settings: protein: recombinant;recombinant; tags: N-terminal Flag-TEV;untagged; copies: 1;1; label: 5'-32P; 5' overhang 2 nt (TA) at both ends
[8] = target: T4, Flag-tagged mouse SPO11 (β splicing isoform), wild type (mouse, UniProt Q9WTK8-1 1-396); assay: SEC; proteins co-expressed in FreeStyle 293-F cells; lysate (25 mM HEPES-NaOH pH 7.5, 500 mM NaCl) on anti-Flag M2 affinity gel, eluted with Flag peptide, then Superdex 200 Increase 10/300 GL; fractions on Coomassie-stained SDS-PAGE; settings: partners not purified
T4 construct: mouse SPO11, β splicing isoform (includes exon 2), UniProt Q9WTK8-1, full-length optimized coding DNA; A TEV cleavage site lies between the Flag tag and SPO11; no cleavage is described; also called Flag–SPO11; mSPO11; not shown: Flag, N-terminal, kept
T4 sequence (looked up): T1 sequence 1

B1: oligonucleotide cleavage substrate (44 bp, A4 loops at both ends) (structured_DNA)
DNA: CGGTTCAAAAGAACCGGAGCTGAATGAAGCCATACCAAACGACGAGCGTGACACAAAAGTGTCACGCTCGTCGTTTGGTATGGCTTCATTCAGCTC
modifications: covalently closed circle (ligated)
- Kd [1]: 1.8 nM

B2: 22 bp double-overhang duplex (dsDNA)
DNA 1: TAGCAATGTAATCGTCTATGACGT
DNA 2: TAACGTCATAGACGATTACATTGC
- binding result [2]: binds

B3: 25 bp hairpin, 2-nt 5' overhang (structured_DNA)
DNA: TAGCAATGTAATCGTCTATGACGTTAACGTCATAGACGATTACATTGC
- Kd [3]: 0.59 ± 0.05 nM
- Kd [4]: 0.57 ± 0.03 nM
- binding result [5]: binds

B4: 25 bp double-overhang duplex (dsDNA)
DNA 1: TAGCAATGTAATCGTCTATGACGTTAG
DNA 2: TACTAACGTCATAGACGATTACATTGC
- binding result [6]: binds

B5: 26 bp double-overhang duplex (dsDNA)
DNA 1: TAGCAATGTAATCGTCTATGACGTTAGC
DNA 2: TAGCTAACGTCATAGACGATTACATTGC
- binding result [6]: binds

B6: 28 bp double-overhang duplex (dsDNA)
DNA 1: TAGCAATGTAATCGTCTATGACGTTAGCGC
DNA 2: TAGCGCTAACGTCATAGACGATTACATTGC
- binding result [7]: binds

B7: 23 bp double-overhang duplex (dsDNA)
DNA 1: TAGCAATGTAATCGTCTATGACGTT
DNA 2: TAAACGTCATAGACGATTACATTGC
- binding result [2]: binds

B8: 24 bp double-overhang duplex (dsDNA)
DNA 1: TAGCAATGTAATCGTCTATGACGTTA
DNA 2: TATAACGTCATAGACGATTACATTGC
- binding result [6]: binds

- stoichiometry N [8]: 1
B9: mouse TOP6BL, untagged (natural protein, UniProt J3QMY9-1 1-579, looked up)
chain: T1 sequence 2
notes: mouse TOP6BL, UniProt J3QMY9-1, untagged, optimized coding DNA

B10: 27 bp double-overhang duplex (dsDNA)
DNA 1: TAGCAATGTAATCGTCTATGACGTTAGCG
DNA 2: TACGCTAACGTCATAGACGATTACATTGC
- binding result [6]: binds
